Source: publication doi:10.64898/2025.12.11.693717

Columns and labels:
[1] = target: DCC I372R mutant, overexpressed in Cos7 cells (UniProt P70211); assay: immunostaining of cells or tissue
[2] = target: Deleted in Colorectal Cancer (DCC), wild type, overexpressed in Cos7 cells (UniProt P70211); assay: immunostaining of cells or tissue

Q: For recombinant Draxin (ligand), which Draxin mean fluorescence on DCC+ cells [1] is on record?
A: 0.72

Q: What about the Draxin mean fluorescence on DCC+ cells [2] of the same substance?
A: 0.95
